Where two headings read alike, the source gives them in different places.
Assays:
[1] = tested on: FIXgla-PC carboxylation in AV12 cells
[2] = tested on: FIXgla-PC carboxylation in HEK 293 cells; assay type: cell-based, human; conditions: for inhibition of FIXgla-PC carboxylation by 2 μM warfarin: 5 μM KO as substrate
[3] = tested on: carboxylation of FIXgla-PC reporter protein in HEK293 cells (reduction of KO to vitamin K); assay: Cell-based VKOR activity assay: recombinant VKOR/VKORH expressed in FIXgla-PC/HEK293 cells with KO and warfarin, carboxylated reporter by ELISA; design: species or system human; conditions: for carboxylation of reporter protein by human VKOR cysteine mutants: Y139F background, HEK293 (FIG. 13); for carboxylation of reporter protein by human VKOR cysteine mutants / support of carboxylation of the reporter protein with KO as substrate: 4 μM warfarin; for activity in the in vivo assay: cysteine mutants of VKOR-Y139F; for support of carboxylation of the reporter protein with KO as substrate: 48 h (FIG. 15B); for activity relative to MT-VKORH: KO as substrate, FIXgla-PC/HEK293 (FIG. 21B)
[4] = literature refs 18, 25; cited from earlier work
[5] = Activity of warfarin-resistant Y139F human VKOR relative to wild-type human VKOR
[6] = tested on: carboxylation of FIXgla-PC reporter protein in AV12 cells (reduction of vitamin K to KH2); assay: Cell-based VKOR activity assay in FIXgla-PC/AV12 or FIXgla-PC/VKOR-Y139F/AV12 cells, carboxylated reporter by ELISA; design: species or system Syrian golden hamster; conditions: for activity in reducing vitamin K to KH2 to support carboxylation: transient expression in FIXgla-PC/VKOR-Y139F/AV12, KO and warfarin (FIG. 19A); for ability to reduce vitamin K to KH2 compared with MT-VKORH: FIXgla-PC/VKOR-Y139F/AV12 (FIG. 21C)
[7] = previous in vitro results; cited from earlier work

CC(=O)CC(c1ccccc1)c1c(O)c2ccccc2oc1=O (stereo not drawn) [warfarin]
effect of warfarin on reporter protein carboxylation ([1]; AV12 stably over expressing VKOR-Y139F, 5 μM KO, 2 μM warfarin): abolished reporter protein carboxylation | inhibition of production of carboxylated reporter protein by warfarin ([1]; vitamin K as substrate, AV12): significantly inhibited | residual activity ([1]; vitamin K as substrate, warfarin, AV12 (FIG. 4A)): ~20% | carboxylated reporter protein detected in the medium in the presence of warfarin ([2]; 1 μM vitamin K, 2 μM warfarin, HEK293): less than 20% | carboxylation of reporter protein by endogenous VKOR at 4 μM warfarin ([2]; 4 μM warfarin, HEK293): completely abolished | inhibition of FIXgla-PC carboxylation by 2 μM warfarin ([2]; 2 μM warfarin, HEK293): completely inhibited | inhibition of FIXgla-PC carboxylation by 2 μM warfarin ([2]; 2 μM warfarin, HEK293, listed as Warfarin): eliminated KO-supported carboxylation | levels of carboxylated protein in the presence of warfarin, cells fed vitamin K ([2]; 11 μM vitamin K as substrate, HEK293): unaffected | IC50 ([2]; Homo sapiens, KO (5 μM) as substrate, 48 h, HEK293, read-out: warfarin concentration giving 50% inhibition of FIXgla-PC carboxylation): 100 nM

CC1=C(C/C=C(\C)CCC[C@H](C)CCC[C@H](C)CCCC(C)C)C(=O)c2ccccc2C1=O [vitamin K, Vitamin K1]
vitamin K concentration at which maximum carboxylation of FIXgla-PC occurs ([1]; AV12 cells): 2.5 µM | increase in secretion of carboxylated reporter protein compared to no additions ([2]; 11 μM vitamin K or 5 μM KO, HEK293): approximately 25 fold | vitamin K concentration at which carboxylation occurred maximally ([2]; absence of warfarin, HEK293, 48 h): 1 µM | vitamin K concentration at which maximal carboxylation was detected ([2]; presence of 2 μM warfarin, HEK293, 48 h): 22 µM

O=c1oc2ccccc2c(O)c1Cc1c(O)c2ccccc2oc1=O [dicoumarol]
inhibition of reporter protein carboxylation by dicoumarol ([1]; vitamin K present, AV12): completely inhibited | reporter protein carboxylated ([2]; 20 μM dicoumarol, HEK293, vitamin K): 60% | inhibition of reporter protein carboxylation by dicoumarol ([2]; KO as vitamin K source, HEK293): significantly inhibited | inhibition of reporter protein carboxylation by dicoumarol ([2]; cells fed vitamin K, HEK293): only minimal inhibition | decrease of carboxylation of the reporter protein ([2]; vitamin K as substrate, dicoumarol): ~20%

B1: VKOR-Y139F: human VKOR rendered warfarin resistant by Y139F mutation; control (protein, UniProt Q9BQB6 1-163, looked up, variant Y139F)
Vitamin K epoxide reductase …: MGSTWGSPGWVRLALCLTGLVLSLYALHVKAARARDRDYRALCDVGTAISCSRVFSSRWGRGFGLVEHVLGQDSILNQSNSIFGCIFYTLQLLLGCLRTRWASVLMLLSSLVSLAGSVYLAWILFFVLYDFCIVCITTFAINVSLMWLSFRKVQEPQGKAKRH
carboxylation of reporter protein by human VKOR cysteine mutants [3]: restored | increase of carboxylated reporter protein compared to the control ([3]; transient expression, 5 μM KO, 2 μM warfarin, HEK293, control empty vector): ~20 fold | fraction of wild-type activity [4]: ~40% | reduction in the activity of human VKOR caused by the Y139F mutation [5]: approximately 50% | fraction of wild-type VKOR activity observed ([5]; Y139F human VKOR): About 50% | increase of reporter protein carboxylation by over-expression ([6]; stable expression in AV12, 5 μM KO, no warfarin (FIG. 7B)): approximately two-fold | carboxylated reporter protein secreted ([6]; transient expression in FIXgla-PC/AV12, 5 μM KO, 2 μM warfarin (FIG. 7A)): no carboxylated reporter protein was secreted | support of reporter protein carboxylation ([6]; transient expression in FIXgla-PC/AV12 not stably expressing VKOR-Y139F, KO and warfarin (FIG. 19B)): did not support carboxylation of the reporter protein

B2: C16A: warfarin resistant human VKOR (Y139F) with C16 mutated to alanine (protein, UniProt Q9BQB6 1-163, looked up, variant C16A)
Vitamin K epoxide reductase …: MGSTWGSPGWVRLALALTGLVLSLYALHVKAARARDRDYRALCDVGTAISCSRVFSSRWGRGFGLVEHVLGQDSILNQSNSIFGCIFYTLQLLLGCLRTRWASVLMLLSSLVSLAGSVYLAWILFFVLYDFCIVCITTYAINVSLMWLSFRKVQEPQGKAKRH
activity in the in vitro assay [7]: ~40% | activity in the in vivo assay ([3]; 5 μM KO, 4 μM warfarin (FIG. 17A)): no effect on activity

B3: C43A: warfarin resistant human VKOR (Y139F) with C43 mutated to alanine (protein, UniProt Q9BQB6 1-163, looked up, variant C43A)
Vitamin K epoxide reductase …: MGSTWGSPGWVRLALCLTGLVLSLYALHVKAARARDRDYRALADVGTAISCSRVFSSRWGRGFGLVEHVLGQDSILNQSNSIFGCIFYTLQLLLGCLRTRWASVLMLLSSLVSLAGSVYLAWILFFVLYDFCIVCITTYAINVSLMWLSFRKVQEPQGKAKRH
activity in the in vitro assay [7]: ~30% | carboxylation of reporter protein by human VKOR cysteine mutants [3]: dramatically decreased activity | activity in the in vivo assay ([3]; 5 μM KO, 4 μM warfarin (FIGS. 17A-B)): ~5%

B4: SY-VKORH: Synechococcus sp. VKORH, SEQ ID NO:21 (protein)
chain: MASYLKLKAQEETWLQRHSRLILAILAGLGSLLTAYLTYTKLTEQPAAFCTGDGGCDLVLSSRWAEFLGIPTAAVGLLGFLGVLALAVLPDGLPLVKRWRWPALFGLVSAMTAFEMYMLYLMVAVLRQFCMYCTTAIILVAGLGLVTVLGHRWLDGGKLAFSYILVAFLTLVTTIGVYANQVPPPSPLAVGLAAHLRQIGGTMYGAYWCPHCQDQKELFGAAFDQVPYVECSPNGPGTPQAQECTEAGITSYPTWIINGRTYTGVRSLEALAVASGYPLEEGR
modifications: Synechococcus sp. JA-2-3B′a(2-13)
support of carboxylation of the reporter protein with KO as substrate ([3]; 5 μM KO): only MT-VKORH supported carboxylation | activity in reducing vitamin K to KH2 to support carboxylation [6]: no significant activity

B5: SA-VKORH: Salinispora tropica CNB-440 VKORH, SEQ ID NO:24 (protein)
chain: MTTTANRPVTTPAERHFLAAVTAWVLTIGGAVGLLAAAALTVEKINLLADPGYVPTCSINPILSCGSVMNTPQAAVFGFPNPLLGIAGFAVVTTLGVTLLATGHLPRWMWLGLQGGVTFGVVFVHWLIYQSLYVIGALCPYCMVVWAVTIPIFLYTTLQTLRDNTTALPRALRRVTERVARYHSLVLVVWAAFVVVVILHRFWDYWSTLG
modifications: Salinispora tropica CNB-440
activity relative to MT-VKORH [3]: 30% | ability to reduce vitamin K to KH2 compared with MT-VKORH [6]: higher than the KO to vitamin K reduction

B6: CO-VKORH: Corynebacterium jeikeium K411 VKORH, SEQ ID NO:23 (protein, listed as Corynebacterium jeikeium)
chain: MWVWWGREGVSNKESEHMNGLGATKRFGYTFLVLSTIGLIFSALIMHDKVQMALDPNFEPACTFNEVISCTDVMASDQAATFGFANPFIGMIGFPVMMTLAVMLIVGAKLPRWIWYCALAGLAFGVAFVHWLAYSAIYSIGALCPYCMAVWAATLPMFVMTLVHIQREKRREAGEDVAHSALGMPLVVIIAWFLAFTALILDQFVF
activity relative to MT-VKORH [3]: 70% | ability to reduce vitamin K to KH2 compared with MT-VKORH [6]: higher than the KO to vitamin K reduction

B7: RO-VKORH: Roseiflexus sp. RS-1 VKORH, SEQ ID NO:20 (protein)
chain: MRRFLLTLIVSCMLTLSLSVASAAATVRAVLFYSPRCGHCHMVISEHLPPLQQRYGDQLQILMIDVDQAQGAALYREAIAVYAIPEARRGVPTMIISDTVLVGSVEIPQRLPGLIETLLARGGSDWPPIPGLADLLATVPTSAPAPPTLPPATAETPPFLRDLPANALAVVVLAGMLLTVMWAGITWSRPAQPPTRWRDRSIPLLAIGGMAVAAYLTFIETTGAPALCGPVGDCNAVQQSEFARLFGTIPVGAAGVAGYGAILIVWIVAHLLPGTSGERAALLLPALALIGTLFSIYLTFLEPFVIGATCLWCLTSAVIMTGLLWLSMPYRQRSTSRGYARR
modifications: Roseiflexus sp. RS-1
support of carboxylation of the reporter protein with KO as substrate ([3]; 5 μM KO): only MT-VKORH supported carboxylation | activity in reducing vitamin K to KH2 to support carboxylation [6]: significant activity

Source: patent publication US9631002B2, “Methods and compositions for producing active vitamin K-dependent proteins” (The University of North Carolina at Chapel Hill, priority 2010, dated 2017)
